# B1: peptide HD2 (from tick evasin EVA4) / CCL1 (biotinylated, synthetic) (parent complex)
# chain 1: EEDDYTAYAPLTCYFT
# chain 2: KSMQVPFSRCCFSFAEQEIPLRAILCYRNTSSICSNEGLIFKLKRGKEACALDTVGWVQRHRKMLRHCPSKRK
# Variants of: B1
row,Variant,enrichment
1,chain 1 EEDDYTAYAPLTQYFT [chain 1 C13Q],-7.02 log2 (difference from the parental peptide)
2,chain 1 EEDDYTAYNPLTCYFT [chain 1 A9N],-5.08 log2 (difference from the parental peptide)
3,chain 1 EEDDYTTYAPLTCYFT [chain 1 A7T],-3.41 log2 (difference from the parental peptide)
4,chain 1 EEDDYTAYAPLHCYFT [chain 1 T12H],-0.868 log2 (difference from the parental peptide)
5,chain 1 SEDDYTAYAPLTCYFT [chain 1 E1S],-1.56 log2 (difference from the parental peptide)
6,chain 1 EMDDYTAYAPLTCYFT [chain 1 E2M],-2.13 log2 (difference from the parental peptide)
7,chain 1 EEDDYAAYAPLTCYFT [chain 1 T6A],2.46 log2 (difference from the parental peptide)
8,chain 1 EEDDYTAYAPMTCYFT [chain 1 L11M],2.12 log2 (difference from the parental peptide)
9,chain 1 EEDDYTQYAPLTCYFT [chain 1 A7Q],2.46 log2 (difference from the parental peptide)
10,chain 1 EEDDYTSYAPLTCYFT [chain 1 A7S],-0.477 log2 (difference from the parental peptide)
11,chain 1 EEDDYTAYAPLTCYGT [chain 1 F15G],-3.15 log2 (difference from the parental peptide)
12,chain 1 EEDDYTAYAWLTCYFT [chain 1 P10W],-5.49 log2 (difference from the parental peptide)
13,chain 1 EEDDYTAYAPLTCYRT [chain 1 F15R],-0.358 log2 (difference from the parental peptide)
14,chain 1 AEDDYTAYAPLTCYFT [chain 1 E1A],-1.47 log2 (difference from the parental peptide)
15,chain 1 EEDDYTAYAPLTCYDT [chain 1 F15D],-3.07 log2 (difference from the parental peptide)
16,chain 1 VEDDYTAYAPLTCYFT [chain 1 E1V],-1.48 log2 (difference from the parental peptide)
17,chain 1 EEDDYTAAAPLTCYFT [chain 1 Y8A],-8 log2 (difference from the parental peptide)
18,chain 1 EEDDYTAYAPLTMYFT [chain 1 C13M],-7.16 log2 (difference from the parental peptide)
19,chain 1 ETDDYTAYAPLTCYFT [chain 1 E2T],-2.76 log2 (difference from the parental peptide)

row,Variant,enrichment
1,chain 1 EEDDYTAYPPLTCYFT [chain 1 A9P],-5.04 log2 (difference from the parental peptide)
2,chain 1 EEDDYTAYIPLTCYFT [chain 1 A9I],-6.64 log2 (difference from the parental peptide)
3,chain 1 EEDDYTAYAPLFCYFT [chain 1 T12F],-1.45 log2 (difference from the parental peptide)
4,chain 1 EEDDYTAYGPLTCYFT [chain 1 A9G],-5.92 log2 (difference from the parental peptide)
5,chain 1 EEDDYTAYLPLTCYFT [chain 1 A9L],-6.22 log2 (difference from the parental peptide)
6,chain 1 EEDDYTAYAPLTCCFT [chain 1 Y14C],-6.55 log2 (difference from the parental peptide)
7,chain 1 EEDDYTAYAPLTCYFD [chain 1 T16D],2.85 log2 (difference from the parental peptide)
8,chain 1 EEPDYTAYAPLTCYFT [chain 1 D3P],-2.66 log2 (difference from the parental peptide)
9,chain 1 EEDDYTAYAPLLCYFT [chain 1 T12L],-0.228 log2 (difference from the parental peptide)
10,chain 1 EEDDYTAYADLTCYFT [chain 1 P10D],-1.68 log2 (difference from the parental peptide)
11,chain 1 EEDDYTAYRPLTCYFT [chain 1 A9R],-5.43 log2 (difference from the parental peptide)
12,chain 1 EEDDYTAYAPKTCYFT [chain 1 L11K],-0.661 log2 (difference from the parental peptide)
13,chain 1 EEDDYTAYAPLTCYFR [chain 1 T16R],-4.51 log2 (difference from the parental peptide)
14,chain 1 EEDDYTYYAPLTCYFT [chain 1 A7Y],-2.42 log2 (difference from the parental peptide)
15,chain 1 EEDDYTAYAPHTCYFT [chain 1 L11H],-1.29 log2 (difference from the parental peptide)
16,chain 1 EEQDYTAYAPLTCYFT [chain 1 D3Q],-3.22 log2 (difference from the parental peptide)
17,chain 1 EEDDYTDYAPLTCYFT [chain 1 A7D],0.378 log2 (difference from the parental peptide)
18,chain 1 EEDDYTAYAPLKCYFT [chain 1 T12K],-1.81 log2 (difference from the parental peptide)
19,chain 1 EEDDYTAYAVLTCYFT [chain 1 P10V],-9.61 log2 (difference from the parental peptide)

row,Variant,enrichment
1,chain 1 EEDDYTAYAPLMCYFT [chain 1 T12M],-0.791 log2 (difference from the parental peptide)
2,chain 1 EEDDYSAYAPLTCYFT [chain 1 T6S],4.57 log2 (difference from the parental peptide)
3,chain 1 EELDYTAYAPLTCYFT [chain 1 D3L],-3.89 log2 (difference from the parental peptide)
4,chain 1 EEMDYTAYAPLTCYFT [chain 1 D3M],-2.32 log2 (difference from the parental peptide)
5,chain 1 EEDMYTAYAPLTCYFT [chain 1 D4M],-5.27 log2 (difference from the parental peptide)
6,chain 1 EEDDYTAIAPLTCYFT [chain 1 Y8I],-5.15 log2 (difference from the parental peptide)
7,chain 1 EEDDYTAYAPLTCSFT [chain 1 Y14S],-6.58 log2 (difference from the parental peptide)
8,chain 1 EEDDYTAYAELTCYFT [chain 1 P10E],-5.54 log2 (difference from the parental peptide)
9,chain 1 EDDDYTAYAPLTCYFT [chain 1 E2D],1.47 log2 (difference from the parental peptide)
10,chain 1 EEDDYLAYAPLTCYFT [chain 1 T6L],-3.32 log2 (difference from the parental peptide)
11,chain 1 EEDDYTAYAPLTCYFY [chain 1 T16Y],-0.704 log2 (difference from the parental peptide)
12,chain 1 NEDDYTAYAPLTCYFT [chain 1 E1N],-1.4 log2 (difference from the parental peptide)
13,chain 1 EEDDYMAYAPLTCYFT [chain 1 T6M],-2.14 log2 (difference from the parental peptide)
14,chain 1 EEDDYTAYQPLTCYFT [chain 1 A9Q],-0.52 log2 (difference from the parental peptide)
15,chain 1 ENDDYTAYAPLTCYFT [chain 1 E2N],-2.76 log2 (difference from the parental peptide)
16,chain 1 EEDDYTAYAPLDCYFT [chain 1 T12D],-0.0823 log2 (difference from the parental peptide)
17,chain 1 EEDDYTAYAPLTCAFT [chain 1 Y14A],-7.68 log2 (difference from the parental peptide)
18,chain 1 EEDDYTAYAPLTWYFT [chain 1 C13W],-8.88 log2 (difference from the parental peptide)

# From PMC11969024 (2025)
